Measured values taken from PMC10269695, “HtpG Is a Metal-Dependent Chaperone Which Assists the DnaK/DnaJ/GrpE Chaperone System of Mycobacterium tuberculosis via Direct Association with DnaJ2” (Microbiology Spectrum, 2023).

Molecular target: T1, M. tuberculosis HtpG (high-temperature protein G) (M. tuberculosis H37Rv, UniProt P9WMJ7 1-647)
T1 construct: also called mHtpG; Rv2299c; not shown: GST, N-terminal, cleaved
T1 sequence: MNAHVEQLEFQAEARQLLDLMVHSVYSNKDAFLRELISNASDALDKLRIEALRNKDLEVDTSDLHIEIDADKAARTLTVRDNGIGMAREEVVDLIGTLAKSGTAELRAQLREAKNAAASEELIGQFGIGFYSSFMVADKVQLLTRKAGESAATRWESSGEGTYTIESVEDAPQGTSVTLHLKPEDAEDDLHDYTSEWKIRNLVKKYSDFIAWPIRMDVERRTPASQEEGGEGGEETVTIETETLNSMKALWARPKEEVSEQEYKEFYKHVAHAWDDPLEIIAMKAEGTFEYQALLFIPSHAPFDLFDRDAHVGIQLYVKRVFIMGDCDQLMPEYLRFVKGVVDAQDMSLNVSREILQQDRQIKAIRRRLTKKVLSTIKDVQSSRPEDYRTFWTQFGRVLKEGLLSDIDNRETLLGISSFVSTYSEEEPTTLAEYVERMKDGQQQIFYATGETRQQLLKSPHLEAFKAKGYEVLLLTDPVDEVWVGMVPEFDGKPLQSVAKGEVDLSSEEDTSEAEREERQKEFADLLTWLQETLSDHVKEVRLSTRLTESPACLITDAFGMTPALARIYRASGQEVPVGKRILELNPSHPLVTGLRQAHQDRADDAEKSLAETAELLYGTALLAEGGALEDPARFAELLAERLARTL
Experiment: BLI
Conditions: both partners purified

B1: M. tuberculosis DnaJ2 (natural protein)
chain: MARDYYGLLGVSKNASDADIKRAYRKLARELHPDVNPDEAAQAKFKEISVAYEVLSDPDKRRIVDLGGDPLESAAAGGNGFGGFGGLGDVFEAFFGGGFGGGAASRGPIGRVRPGSDSLLRMRLDLEECATGVTKQVTVDTAVLCDRCQGKGTNGDSVPIPCDTCGGRGEVQTVQRSLLGQMLTSRPCPTCRGVGVVIPDPCQQCMGDGRIRARREISVKIPAGVGDGMRVRLAAQGEVGPGGGPAGDLYVEVHEQAHDVFVREGDHLHCTVSVPMVDAALGVTVTVDAILDGLSEITIPPGTQPGSVITLRGRGMPHLRSNTRGDLHVHVEVVVPTRLDHQDIELLRELKGRRDREVAEVRSTHAAAGGLFSRLRETFTGR
notes: also called Rv2373c; not shown: GST, N-terminal, cleaved
In the case of B1, the Kd is reported as ~200 nM.
